Measured values: paper PMC6319348, “Phase I/II clinical trial of the targeted chemotherapeutic drug, folate-tubulysin, in dogs with naturally-occurring invasive urothelial carcinoma” (Oncotarget, 2018)
Where “and” joins values, the source holds several entries; their conditions need not be identical. Identical values can stand only once. Entries after “also recorded” stand apart in the source; their conditions may differ. Like-named read-outs stand apart in the source and are kept apart here. Marks after values point to notes of the source that are not given here.

Key:
[1] = test system: canine iUC; conditions: randomized trial in dogs with iUC; cited from earlier work
[2] = test system: tumor xenograft mouse model; conditions: free drug; before effective anti-tumor activity could be observed; cited from earlier work
[3] = Drug concentration in iUC tissue samples; format: in vivo, dog; conditions: three dogs, approximately three hours after treatment, 0.28 mg/kg EC0531
Description: (§1) Tubes were centrifuged, and plasma collected and stored at –80° C.
(§2) Internal standard was added to all samples prior to extraction using a 200 µL SLE+ plate (Biotage, Charlotte, NC, USA). The eluate was collected, evaporated, and reconstituted with acetone prior to sealing and heating the collection plate for 1 hour. After incubation, the extracts were again evaporated and finally reconstituted prior to injection. The extracted samples were injected into a UPLC/MS/MS system (Waters) using a BEH shield RP18 reverse phase column (Waters) and eluted under isocratic conditions. […] Incurred sample concentrations were then back-calculated against a calibration curve prepared in blank dog plasma. […] Samples were homogenized in buffer with a bead beater, or hand held homogenizer. Aliquots (100 µL) of each sample were spiked with 400 µL internal standards in acetone. The extracts were sealed and incubated at 55° C for 1 hour. The extracts were then evaporated to remove acetone, and reconstituted. Finally, reconstituted samples were analyzed by injection into a UPLC-MS/MS system (Waters) to evaluate concentrations of EC0531 and metabolites against a prepared calibration curve.

[4] = test system: naturally-occurring invasive urothelial carcinoma (iUC); experiment: Phase I/II antitumor activity (tumor response, progression free interval); format: in vivo, dog
Description: In order to estimate antitumor activity, the cohort of dogs receiving the MTD was expanded with the goal to assess antitumor effects in a minimum of 24 dogs treated at or above the MTD [37]. The effects of EC0531 on the tumor were assessed by cystosonography using a specific standardized protocol and physical exam including rectal exam at four-week intervals. Complete cancer staging (thoracic radiography with left lateral, right lateral, and ventrodorsal projections; abdominal radiography with right lateral and ventrodorsal projections; and complete abdominal ultrasonography) was performed at eight-week intervals. The response in the primary tumor was determined by comparing volume measurements by cystosonography as follows: complete remission (CR, no cancer detected), partial remission (PR, ≥50% decrease in tumor volume and no new tumor lesions), stable disease (SD, <50% change in tumor volume and no new tumor lesions), and progressive disease (PD, ≥50% increase in tumor volume or the development of new tumor lesions). Metastatic lesion response was assessed by RECIST criteria. Progression free interval (PFI) was defined as the time from start of EC0531 treatment until PD of local or metastatic lesion(s). Permission to perform a necropsy was requested at the time of the dog’s death (death from cancer or other causes). Tissues collected at necropsy were examined histologically and immunohistochemically to detect FR expression in primary and metastatic lesions.
Stepwise Cox regression analysis was performed to assess the relationship between predictor variables and […] (PFI). The following variables were assessed: age, weight, sex, peripheral blood neutrophil-to-lymphocyte ratio at the start of treatment, tumor location (bladder vs urethra/prostate vs both), treatment beginning at < MTD or ≥ MTD, pretreatment with chemotherapy, concurrent use of COXi, IHC/ICC score, and best tumor response (PD vs SD vs PR/CR). Variables with p-values < 0.25 in univariate models were then included in multivariate modeling. Variable(s) with a p-value < 0.05 in the final multi-variable Cox regression model were considered to have a significant effect on PFI.

[5] = test system: dogs with naturally-occurring invasive urothelial carcinoma (iUC); experiment: Phase I dose escalation: safety, tolerability, MTD (VCOG-CTCAE); format: in vivo, dog
Description: (§3) […] […] The 10 pet dogs in the pilot study included six neutered male dogs and four spayed female dogs of a variety of breeds and weighing between 5 and 46 kg.
(§4) Dogs in dosage cohorts were enrolled using a 3+3 trial design. Inter-patient and intra-patient dose escalation was permitted. Drug tolerability was assessed by owner questionnaire, physical exam, CBC the day of treatment and seven days following treatment, and biochemistry panel at four-week intervals. Toxicity was graded using VCOG-CTCAE criteria. The EC0531 dose was increased by 0.02 mg/kg in each subsequent dose cohort if no dose limiting toxicity (DLT) was recorded. DLT was defined as an adverse event (AE) > grade 2. When a grade 3 AE occurred, the cohort was expanded to at least six dogs including six new dogs, i.e. six dogs that had not received prior EC0531 at lower doses. If more than one grade 3 AE or any grade 4 or 5 AE occurred, then six dogs were enrolled at the previous cohort. The MTD was defined as the highest dose tolerated by six dogs with no more than one grade 3 AE and no grade 4–5 AE. Intra-patient dose escalation was permitted if no AEs had occurred after two doses of the drug had been administered.
(§5) In individual dogs, the EC0531 dose was reduced by 10% if grade 2 toxicity was noted, and by 20% if grade 3 or higher toxicity was noted. Treatment was delayed by one week if the neutrophil count was <3,000/mm^3 or platelet count <100,000/mm^3 the day treatment was due.

[6] = as above; format: in vivo, dog; conditions: dog, in vivo; intravenous, every two weeks; dogs with iUC; read-out: maximum tolerated dose (MTD)
Description: as §3, §4, §5

[7] = Plasma pharmacokinetic analysis; format: in vivo, dog
Description: Plasma pharmacokinetic analysis was conducted in six dogs sequentially enrolled in the trial. Blood was collected at 0, 2, 10, and 30 minutes, and at 1, 2, 8, and 24 hours after treatment.
as §1
For the analysis of EC0531 concentrations in plasma, the EC0531 was extracted from 100 µL of dog plasma by 96-well solid phase extraction (SPE). Internal standard was added to all samples prior to extraction using a Strata X-A SPE plate (Phenomenex, Torrance, CA, USA). The eluate was collected, evaporated, and finally reconstituted with 85/15 water/acetonitrile with 40 mM mannitol. The extracted samples were injected into a UPLC/MS/MS system (Waters, Milford, MA, USA) using a BEH C18 reverse phase column (Waters) implementing a mobile phase gradient. Incurred sample concentrations were then back-calculated against a calibration curve prepared in blank dog plasma.
as §2

[8] = test system: U.S. National Cancer Institute 60 tumor cell lines; parameters: method as in PMID 16489930; conditions: percent of cell lines tested; cited from earlier work
[9] = dogs that had received and failed prior chemotherapy
[10] = non-responders, dogs with PD after the initial two treatments
[11] = dog, plasma, iv, 0.28 mg/kg, Avg of six dogs, EC0531 in plasma, single 0.28 mg/kg IV
[12] = Avg of six dogs, EC0347 in plasma after single EC0531 0.28 mg/kg IV

CC[C@]1(O)C[C@@H]2CN(CCc3c([nH]c4ccccc34)[C@@](C(=O)OC)(c3cc4c(cc3OC)N(C)[C@H]3[C@@](O)(C(=O)OC)[C@H](OC(C)=O)[C@]5(CC)C=CCN6CC[C@]43[C@@H]65)C2)C1 [vinblastine]
PR, percent of dogs [1]: 22%

CC[C@]1(O)C[C@@H]2CN(CCc3c([nH]c4ccccc34)[C@@](C(=O)OC)(c3cc4c(cc3OC)N(C)[C@H]3[C@@](O)(C(=O)NN)[C@H](O)[C@]5(CC)C=CCN6CC[C@]43[C@@H]65)C2)C1 [DAVLBH, desacetylvinblastine monohydrazide]
toxicity in tumor xenograft mouse model [2]: unacceptable toxicity

CCCC(=O)OCN(C(=O)[C@@H](NC(=O)[C@H]1CCCCN1C)[C@@H](C)CC)[C@H](C[C@@H](OC(C)=O)c1nc(C(=O)N[C@@H](Cc2ccc(O)cc2)C[C@H](C)C(=O)NNC(=O)OCCSSC[C@H](NC(=O)[C@H](CCC(=O)NC[C@H](O)[C@@H](O)[C@H](O)[C@H](O)CO)NC(=O)CC[C@H](NC(=O)[C@H](CCC(=O)NC[C@H](O)[C@@H](O)[C@H](O)[C@H](O)CO)NC(=O)CC[C@H](NC(=O)[C@H](CCC(=O)NC[C@H](O)[C@@H](O)[C@H](O)[C@H](O)CO)NC(=O)CC[C@H](NC(=O)c2ccc(NCc3cnc4nc(N)[nH]c(=O)c4n3)cc2)C(=O)O)C(=O)O)C(=O)O)C(=O)O)cs1)C(C)C [EC0531]
level at 3 h ([3]; dog, iUC tumor tissue, iv, read-out: concentration of EC0531 in iUC tissues): 3.9 ng/mL
concentration of EC0531 in iUC tissues [3]: below the level of detection
PR, percent of dogs ([4]; 28 dogs): 11%
clinical benefit rate ([4]; 28 dogs): 71%
PFI range ([4]; all dogs (n = 28)): 24 to 649 days
median PFI ([4]; all dogs (n = 28)): 103 days
hazard ratio for PFI ([4]; dogs achieving PR vs dogs with PD): 0.003 (95% CI 0–0.066)
HR for earlier PD [4, 9]: 4.6 (95% CI 1.2–16.7)
PFI range [4, 9]: 34–162
median PFI [4, 9]: 95 days
PFI range ([4]; dogs with SD): 56 to 296 days
median PFI ([4]; dogs with SD): 200 days
hazard ratio for PFI ([4]; dogs with SD vs dogs with PD): 0.013 (95% CI 0.001–0.124)
PFI range [4, 10]: 24–47
median PFI [4, 10]: 34 days
clinical benefit (PR + SD), number of dogs ([4]; of 28 dogs): 20 dogs
partial remission (PR), number of dogs ([4]; of 28 dogs): three
stable disease (SD), number of dogs ([4]; of 28 dogs): 17 dogs
PFI or time of censoring ([4]; the three individual dogs achieving PR): 162 days and 251 days and 649 days
tumor response ([4]; the two dogs receiving all of their doses below the MTD): SD and PD
tolerability of treatment at the MTD ([5]; 0.26 mg/kg every two weeks): well tolerated
withdrawal from the study due to AE / toxicity ([5]; 28 dogs): No dog withdrew; also recorded: no dogs were removed
toxicity noted ([5]; 28 dogs, 311 doses): neutropenia, anorexia, or lethargy
overall tolerability ([5]; 28 dogs, total of 311 doses): generally well tolerated
infusion reaction ([5]; a single dog, transient): hypotension, compensatory tachycardia, and subsequent syncopal episode
Adverse events defined by VCOG-CTCAE ([5]; dose 0.28 mg/kg, 10 dogs, 63 doses): 1 dog with G1 vomiting^a 1 dog with G1lethargy and G3 weight loss (DLT)^a 1 dog with G4 neutropenia (DLT)^b 1 dog with G4 infusion reaction (DLT)^b
Adverse events defined by VCOG-CTCAE ([5]; dose 0.34 mg/kg, 1 dog, 5 doses): G3 anorexia and 1 dog with G3 anorexia (DLT)
Adverse events defined by VCOG-CTCAE ([5]; dose 0.18 (mg/kg), 1 dog, 6 doses): 1 dog with G1 anorexia
Adverse events defined by VCOG-CTCAE ([5]; dose 0.20 (mg/kg), 4 dogs, 14 doses): 1 dog with G2 anorexia
Adverse events defined by VCOG-CTCAE ([5]; dose 0.22 (mg/kg), 4 dogs, 10 doses): 1 dog with G1 lethargy
Adverse events defined by VCOG-CTCAE ([5]; dose 0.24 (mg/kg), 4 dogs, 16 doses): 1 dog with G2 neutropenia
Adverse events defined by VCOG-CTCAE ([5]; dose 0.26 (mg/kg), 6 dogs, 33 doses): 1 dog with G1 lethargy 1 dog with G1 vomiting and G1 neutropenia 1 dog with G2 neutropenia 1 dog with G3 neutropenia (DLT) and G2 diarrhea
Adverse events defined by VCOG-CTCAE ([5]; dose 0.30 (mg/kg), 2 dogs, 15 doses): 1 dog with G3 neutropenia (DLT)
Adverse events defined by VCOG-CTCAE ([5]; dose 0.32 (mg/kg), 1 dog, 2 doses): No adverse events observed
toxicity observed at doses higher than the MTD ([5]; doses above 0.26 mg/kg every two weeks): grade 3-4 neutropenia and gastrointestinal toxicity
thrombocytopenia ([5]; one dog, heavily pretreated with chemotherapy, chronically low platelet counts): grade 2 thrombocytopenia
outcome of weekly dose interval ([5]; pilot study in pet dogs): suspended due to neutropenia
neutrophil nadir ([5]; pilot study in pet dogs with iUC, n = 10 dogs): four to seven days after treatment
outcome of twice weekly dosing ([5]; pilot study in pet dogs, dosing not continued): dose limiting-neutropenia and anorexia
MTD [6]: 0.26 mg/kg
Tmax ([7]; Norwegian Elkhound, dog, individual dogs #1-6 (c0), EC0531 in plasma, single 0.28 mg/kg IV): 2 min
AUC(0-inf) [7, 11]: 1900 ng·h/mL
AUC(0-t) [7, 11]: 1890 ng·h/mL
C0 [7, 11]: 3990 ng/mL
Cmax [7, 11]: 3490 ng/mL
clearance [7, 11]: 2.78 mL/min/kg
Vd ([7]; dog, plasma, iv, 0.28 mg/kg, Avg of six dogs, EC0531 in plasma, single 0.28 mg/kg IV, read-out: Vz): 0.102 L/kg
half-life ([7]; dog, plasma, iv, 0.28 mg/kg, Avg of six dogs, EC0531 in plasma, single 0.28 mg/kg IV, read-out: t1/2): 24.7 min
half-life ([7]; dog, plasma, iv, 0.28 mg/kg, dogs, 0.28 mg/kg IV, biphasic pharmacokinetic behavior, read-out: elimination half-life): ~25 min
half-life ([7]; dog, plasma, iv, 0.28 mg/kg, individual dogs #1-6 (c0), EC0531 in plasma, single 0.28 mg/kg IV, read-out: t1/2): 22 min
Tmax ([7]; dog, Avg of six dogs, EC0531 in plasma, single 0.28 mg/kg IV): 2 min
peak plasma drug concentration relative to concentrations required to kill FR-expressing tumor cells in vitro ([7]; dogs receiving 0.28 mg/kg, in vitro concentrations from ref 14): approximately 700 times

CCCC(=O)OCN(C(=O)[C@@H](NC(=O)[C@H]1CCCCN1C)C(C)CC)[C@H](C[C@@H](OC(C)=O)c1nc(C(=O)N[C@@H](Cc2ccc(O)cc2)C[C@H](C)C(=O)NN)cs1)C(C)C (stereo partly shown) [EC0347]
Cmax, EC0347 (free drug) [7, 12]: 2.3 ng/mL
Tmax, EC0347 (free drug) [7, 12]: 12.0 min
Tmax, EC0347 (free drug) ([7]; individual dogs #1-6 (c0), EC0347 in plasma after single EC0531 0.28 mg/kg IV): 10.0 min

CC[C@H](C)[C@H](NC(=O)[C@H]1CCCCN1C)C(=O)N(COC(=O)CC(C)C)[C@H](C[C@@H](OC(C)=O)c1nc(C(=O)N[C@@H](Cc2ccc(O)cc2)C[C@H](C)C(=O)O)cs1)C(C)C [tubulysin A]
cell lines with growth inhibition [8]: 33%
